± gives the uncertainty stated by the source.
Experiment: self-splicing fitness, log relative to wild type (ln ratio); higher = more splicing; Tetrahymena group I intron in knt gene, E. coli kanamycin selection, DiMSum; sequences stand for … in CUCUCU…GGAGGGAAAAGUUAUCAGGCAUGCACCUGGUAGCUAGUCUUUAAACCAAUAGAUUGCAUCGGUUUAAAAGGCAAGACCGUCAAAUUGCGGGAAAGGGGUCAACAGCCGUUCAGUACCAAGUCUCAGGGGAAACUUUGAGAUGGCCUUGCAAAGGGUAUGGUAAUAAGCUGACGGACAUGGUCCUAACCACGCAGCCAAGUCCUAAGUCAACAGAUCUUCUGUUGAUAUGGAUGCAGUUCACAGACUAAAUGUCGGUCGGGGAAGAUGUAUUCUUCUCAUAAGAUAUAGUCGGACCUCUCCUUAAUGGGAGCUAGCGGAUGAAGUGAUGCAACACUGGAGCCGCUGGGAACUAAUUUGUAUGCGAAAGUAUAUUGAUUAGUUUUGGAGUACUCGUGGUCG
Procedure, shortened: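 Fitness was computed with DiMSum as the error-weighted combination of replicate fold changes, kanamycin versus none, each normalised to wild type. The library randomised all eight intron nucleotides of the P1ex region, with the intron placed in the knt kanamycin-resistance gene on pET-22b(+) in E. coli BL21(DE3). Six replicate transformations were grown overnight at 37°C or 30°C on LB agar with or without 25 μg/mL kanamycin, plus 100 μg/mL carbenicillin, 50 μM IPTG and 0.2% rhamnose. Pooled colonies were amplicon-sequenced on an Illumina HiSeq 2500.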

Row | Sequence | self-splicing fitness (ln) (30 °C) | self-splicing fitness (ln) (37 °C)
1 | GAUAAGCAAUAUUACGAUCA | -1.33 ± 0.1 | -0.134 ± 0.1
2 | GAUAAGCAAUAUUACGCGCA | -0.808 ± 0.085 | 0.383 ± 0.13
3 | GAUAAGCAAUAUUACGCUUG | -2.05 ± 0.1 | -0.952 ± 0.1
4 | GAUAAGCAAUAUUACGGACA | -1.39 ± 0.09 | -0.559 ± 0.088
5 | GAUAAGCAAUAUUACGGACU | -0.638 ± 0.07 | -0.289 ± 0.094
6 | GAUAAGCAAUAUUACGGCAA | -0.963 ± 0.14 | -0.998 ± 0.16
7 | GAUAAGCAAUAUUACGGCCA | -1.15 ± 0.18 | 0.818 ± 0.17
8 | GAUAAGCAAUAUUACGGGAC | -2.82 ± 0.13 | -1.18 ± 0.1
9 | GAUAAGCAAUAUUACGGGAU | -2.39 ± 0.18 | -1.89 ± 0.19
10 | GAUAAGCAAUAUUACGUAAU | -1.78 ± 0.073 | -0.923 ± 0.1
11 | GAUAAGCAAUAUUACGUAGU | -2.09 ± 0.083 | -0.957 ± 0.091
12 | GAUAAGCAAUAUUACGUAUA | -1.81 ± 0.12 | -1.01 ± 0.11
13 | GAUAAGCAAUAUUACGUAUU | -4.03 ± 0.37 | -1.78 ± 0.21
14 | GAUAAGCAAUAUUACGUCAA | -1.66 ± 0.16 | -1.39 ± 0.14
15 | GAUAAGCAAUAUUACGUGAA | -2.2 ± 0.13 | -1.63 ± 0.15
16 | GAUAAGCAAUAUUACGUGCG | -0.71 ± 0.083 | -0.166 ± 0.13
17 | GAUAAGCAAUAUUACGUUCC | -3.71 ± 0.28 | -2.94 ± 0.24
18 | GAUCAGCAAUAUUACGAAGC | -1.74 ± 0.078 | -0.845 ± 0.086
19 | GAUCAGCAAUAUUACGAAUU | -1.21 ± 0.065 | -0.655 ± 0.083
20 | GAUCAGCAAUAUUACGACGG | -2.63 ± 0.28 | -0.19 ± 0.25
21 | GAUCAGCAAUAUUACGACGU | 0.142 ± 0.076 | 0.682 ± 0.089
22 | GAUCAGCAAUAUUACGAGUU | -1.26 ± 0.094 | -0.882 ± 0.12
23 | GAUCAGCAAUAUUACGAUAC | -1.08 ± 0.078 | -0.733 ± 0.12
24 | GAUCAGCAAUAUUACGCAAA | -0.978 ± 0.17 | -0.367 ± 0.16

Row | Sequence | self-splicing fitness (ln) (30 °C) | self-splicing fitness (ln) (37 °C)
25 | GAUCAGCAAUAUUACGCAGG | -3.3 ± 0.29 | -1.09 ± 0.12
26 | GAUCAGCAAUAUUACGCGGC | -3.7 ± 0.37 | -2.89 ± 0.4
27 | GAUCAGCAAUAUUACGCGUA | -0.39 ± 0.095 | -0.283 ± 0.14
28 | GAUCAGCAAUAUUACGGAUG | -1.19 ± 0.068 | -0.813 ± 0.076
29 | GAUCAGCAAUAUUACGGCAG | -3.4 ± 0.33 | -2.34 ± 0.27
30 | GAUCAGCAAUAUUACGGCCU | -1.13 ± 0.22 | -1.18 ± 0.23
31 | GAUCAGCAAUAUUACGGCUA | -0.263 ± 0.099 | 0.0701 ± 0.11
32 | GAUCAGCAAUAUUACGGCUG | -3.29 ± 0.19 | -1.12 ± 0.16
33 | GAUCAGCAAUAUUACGGUAC | -0.39 ± 0.11 | -0.884 ± 0.12
34 | GAUCAGCAAUAUUACGGUCG | -1.42 ± 0.092 | -0.484 ± 0.088
35 | GAUCAGCAAUAUUACGUAUA | -0.819 ± 0.091 | -0.975 ± 0.088
36 | GAUCAGCAAUAUUACGUAUU | -2.69 ± 0.12 | -1.38 ± 0.12
37 | GAUCAGCAAUAUUACGUCUU | 0.24 ± 0.076 | 0.0656 ± 0.085
38 | GAUCAGCAAUAUUACGUGGG | -3.21 ± 0.13 | -1.7 ± 0.11
39 | GAUCAGCAAUAUUACGUUUG | -1.53 ± 0.058 | 0.151 ± 0.08
40 | GAUGAGCAAUAUUACGACAA | -2.95 ± 0.31 | –
41 | GAUGAGCAAUAUUACGACGC | -0.267 ± 0.15 | 0.408 ± 0.23
42 | GAUGAGCAAUAUUACGAGGA | -2.63 ± 0.17 | -2.89 ± 0.15
43 | GAUGAGCAAUAUUACGAUGG | -1.57 ± 0.13 | -2 ± 0.25
44 | GAUGAGCAAUAUUACGCACG | -3.63 ± 0.32 | -2.25 ± 0.3
45 | GAUGAGCAAUAUUACGCAUU | – | -1.96 ± 0.39
46 | GAUGAGCAAUAUUACGCGCC | -3.17 ± 0.3 | -2.26 ± 0.2
47 | GAUGAGCAAUAUUACGGACG | – | -1.49 ± 0.26
48 | GAUGAGCAAUAUUACGGCAG | – | -2.52 ± 0.41

Row | Sequence | self-splicing fitness (ln) (30 °C) | self-splicing fitness (ln) (37 °C)
49 | GAUGAGCAAUAUUACGGCGA | -2.19 ± 0.17 | -1.38 ± 0.13
50 | GAUGAGCAAUAUUACGGGAA | -3.01 ± 0.23 | -3.7 ± 0.42
51 | GAUGAGCAAUAUUACGUAUA | – | -1.82 ± 0.35
52 | GAUGAGCAAUAUUACGUGAG | -2.88 ± 0.23 | -2.06 ± 0.28
53 | GAUUAGCAAUAUUACGAAAG | -2.38 ± 0.25 | -0.574 ± 0.23
54 | GAUUAGCAAUAUUACGAAGA | -1.25 ± 0.43 | -0.415 ± 0.38
55 | GAUUAGCAAUAUUACGAAGG | -3.53 ± 0.43 | -1.8 ± 0.35
56 | GAUUAGCAAUAUUACGAUUC | -2.58 ± 0.22 | -1.45 ± 0.2
57 | GAUUAGCAAUAUUACGCGCG | -1.03 ± 0.097 | -0.745 ± 0.12
58 | GAUUAGCAAUAUUACGCGGA | -3.19 ± 0.26 | -1.55 ± 0.15
59 | GAUUAGCAAUAUUACGGAAU | -2.71 ± 0.15 | -2.11 ± 0.17
60 | GAUUAGCAAUAUUACGGAUC | -2.71 ± 0.4 | -2.18 ± 0.32
61 | GAUUAGCAAUAUUACGGGGU | -3.45 ± 0.18 | -2.11 ± 0.13
62 | GAUUAGCAAUAUUACGGUAG | -2.5 ± 0.15 | -1.21 ± 0.12
63 | GAUUAGCAAUAUUACGGUAU | -1.75 ± 0.12 | -1.14 ± 0.14
64 | GAUUAGCAAUAUUACGGUUU | -0.946 ± 0.083 | 0.231 ± 0.11
65 | GAUUAGCAAUAUUACGUAUG | -1.75 ± 0.065 | -1.33 ± 0.087
66 | GAUUAGCAAUAUUACGUCAA | -2.6 ± 0.41 | -0.886 ± 0.22
67 | GAUUAGCAAUAUUACGUGCA | -1.7 ± 0.14 | -0.0754 ± 0.09
68 | GAUUAGCAAUAUUACGUUAC | -2.63 ± 0.19 | -2.53 ± 0.23
69 | GAUUAGCAAUAUUACGUUCC | -2.41 ± 0.3 | -1.59 ± 0.19
70 | GCAAAGCAAUAUUACGAAGU | -3.24 ± 0.16 | -1.22 ± 0.11
71 | GCAAAGCAAUAUUACGACUC | -0.773 ± 0.13 | 0.0939 ± 0.11
72 | GCAAAGCAAUAUUACGACUU | -0.0792 ± 0.067 | -0.0895 ± 0.087

Row | Sequence | self-splicing fitness (ln) (30 °C) | self-splicing fitness (ln) (37 °C)
73 | GCAAAGCAAUAUUACGAGAA | -3 ± 0.2 | -1.66 ± 0.18
74 | GCAAAGCAAUAUUACGAGUG | -2.57 ± 0.097 | -0.371 ± 0.092
75 | GCAAAGCAAUAUUACGAUCC | -0.0105 ± 0.12 | -0.518 ± 0.13
76 | GCAAAGCAAUAUUACGCAAU | -3.41 ± 0.13 | -1 ± 0.092
77 | GCAAAGCAAUAUUACGCAGU | -3.23 ± 0.28 | -2.42 ± 0.23
78 | GCAAAGCAAUAUUACGCCAU | -2.9 ± 0.17 | -1.6 ± 0.22
79 | GCAAAGCAAUAUUACGCCCU | -0.279 ± 0.2 | 0.0848 ± 0.16
80 | GCAAAGCAAUAUUACGCGCC | -2.2 ± 0.26 | -2.09 ± 0.36
81 | GCAAAGCAAUAUUACGCUGG | -2.41 ± 0.13 | -0.395 ± 0.14
82 | GCAAAGCAAUAUUACGGAGU | -3.58 ± 0.17 | -2.42 ± 0.21
83 | GCAAAGCAAUAUUACGGGUU | -2.11 ± 0.12 | -1.67 ± 0.16
84 | GCAAAGCAAUAUUACGGUUA | -0.938 ± 0.08 | -0.429 ± 0.076
85 | GCAAAGCAAUAUUACGUAGC | -4.47 ± 0.46 | -1.71 ± 0.22
86 | GCAAAGCAAUAUUACGUCAA | -3.16 ± 0.19 | -2.02 ± 0.14
87 | GCAAAGCAAUAUUACGUCGG | -3.15 ± 0.19 | -1.22 ± 0.13
88 | GCAAAGCAAUAUUACGUGCU | -3.46 ± 0.12 | -2.73 ± 0.17
89 | GCAAAGCAAUAUUACGUUAU | -1.73 ± 0.084 | -1.54 ± 0.092
90 | GCACAGCAAUAUUACGACAC | -0.345 ± 0.078 | 0.29 ± 0.093
91 | GCACAGCAAUAUUACGAGAA | -2.66 ± 0.25 | -0.185 ± 0.12
92 | GCACAGCAAUAUUACGAGGA | -2.11 ± 0.096 | -1.23 ± 0.099
93 | GCACAGCAAUAUUACGAUAC | -1.21 ± 0.074 | -0.488 ± 0.084
94 | GCACAGCAAUAUUACGAUAG | -1.91 ± 0.087 | -1.14 ± 0.1
95 | GCACAGCAAUAUUACGAUGA | -0.231 ± 0.076 | -0.14 ± 0.078
96 | GCACAGCAAUAUUACGAUGG | -0.945 ± 0.072 | -1.06 ± 0.081

— the supplement of paper PMC7877785
